“And” between values parts separate entries of the source, which are not always exact repeats. Identical values can stand only once. Each block holds one binder with its values, some of them ahead of it.
What was measured:
[1] = molecular target: T1, mouse neuropilin-2(a0), myc-tagged, expressed in COS-7 cells (mouse, UniProt O35375 21-931); test: AP fusion binding to transfected COS cells
T1 construct: also called SR2(a)0; m-npn-2
T1 sequence: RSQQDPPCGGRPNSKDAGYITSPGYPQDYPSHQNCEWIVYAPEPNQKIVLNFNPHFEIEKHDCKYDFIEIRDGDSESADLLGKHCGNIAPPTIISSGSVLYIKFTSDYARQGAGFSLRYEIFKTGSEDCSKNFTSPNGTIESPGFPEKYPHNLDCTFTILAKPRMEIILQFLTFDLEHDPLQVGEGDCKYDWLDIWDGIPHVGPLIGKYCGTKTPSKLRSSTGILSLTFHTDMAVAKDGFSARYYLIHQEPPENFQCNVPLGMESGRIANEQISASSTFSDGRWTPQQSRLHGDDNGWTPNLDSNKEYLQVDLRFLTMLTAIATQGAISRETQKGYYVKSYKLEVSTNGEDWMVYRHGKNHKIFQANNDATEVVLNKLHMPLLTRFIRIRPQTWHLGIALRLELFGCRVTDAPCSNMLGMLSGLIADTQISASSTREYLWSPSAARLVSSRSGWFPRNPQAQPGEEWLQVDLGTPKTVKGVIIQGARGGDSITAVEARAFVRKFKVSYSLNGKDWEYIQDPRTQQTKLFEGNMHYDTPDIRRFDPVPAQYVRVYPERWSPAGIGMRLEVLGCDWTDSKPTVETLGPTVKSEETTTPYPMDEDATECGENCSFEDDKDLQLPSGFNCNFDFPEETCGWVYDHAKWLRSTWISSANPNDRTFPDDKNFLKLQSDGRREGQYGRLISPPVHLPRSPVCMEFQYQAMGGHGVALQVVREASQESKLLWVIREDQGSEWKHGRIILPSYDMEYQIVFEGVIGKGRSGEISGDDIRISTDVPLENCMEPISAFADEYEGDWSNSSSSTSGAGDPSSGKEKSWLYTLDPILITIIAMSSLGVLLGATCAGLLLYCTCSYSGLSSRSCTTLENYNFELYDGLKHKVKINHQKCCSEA

[2] = molecular target: T2, mouse neuropilin-2(a5), myc-tagged, expressed in COS-7 cells (mouse, UniProt O35375 21-931); test: AP fusion binding to transfected COS cells
T2 construct: also called a5 isoform of neuropilin-2; SR2(a)5
T2 sequence: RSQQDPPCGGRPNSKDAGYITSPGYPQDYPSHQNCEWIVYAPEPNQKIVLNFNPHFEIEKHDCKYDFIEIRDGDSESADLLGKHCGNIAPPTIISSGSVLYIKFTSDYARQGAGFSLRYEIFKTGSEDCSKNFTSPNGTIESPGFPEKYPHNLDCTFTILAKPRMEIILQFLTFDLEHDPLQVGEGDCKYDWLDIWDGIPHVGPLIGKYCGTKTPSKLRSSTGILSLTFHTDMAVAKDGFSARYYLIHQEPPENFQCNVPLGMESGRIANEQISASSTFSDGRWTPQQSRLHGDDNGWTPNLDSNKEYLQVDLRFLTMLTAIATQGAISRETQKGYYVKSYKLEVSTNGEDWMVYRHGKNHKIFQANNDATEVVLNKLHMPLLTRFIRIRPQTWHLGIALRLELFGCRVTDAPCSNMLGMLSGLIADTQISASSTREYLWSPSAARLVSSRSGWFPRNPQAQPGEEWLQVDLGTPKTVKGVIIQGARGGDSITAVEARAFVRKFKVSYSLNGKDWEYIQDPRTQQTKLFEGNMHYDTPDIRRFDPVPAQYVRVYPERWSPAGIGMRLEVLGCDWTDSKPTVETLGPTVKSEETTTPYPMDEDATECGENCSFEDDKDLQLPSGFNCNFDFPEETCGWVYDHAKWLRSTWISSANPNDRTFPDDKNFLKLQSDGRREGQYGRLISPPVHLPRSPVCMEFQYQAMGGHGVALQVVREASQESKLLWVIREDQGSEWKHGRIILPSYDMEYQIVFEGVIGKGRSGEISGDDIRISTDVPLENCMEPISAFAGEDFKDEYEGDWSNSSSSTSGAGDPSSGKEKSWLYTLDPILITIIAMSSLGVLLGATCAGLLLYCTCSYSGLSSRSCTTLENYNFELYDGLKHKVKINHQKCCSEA

[3] = molecular target: T3, mouse neuropilin-2(a22), myc-tagged, expressed in COS-7 cells (mouse, UniProt O35375 21-931); test: AP fusion binding to transfected COS cells
T3 construct: also called SR2(a)22
T3 sequence: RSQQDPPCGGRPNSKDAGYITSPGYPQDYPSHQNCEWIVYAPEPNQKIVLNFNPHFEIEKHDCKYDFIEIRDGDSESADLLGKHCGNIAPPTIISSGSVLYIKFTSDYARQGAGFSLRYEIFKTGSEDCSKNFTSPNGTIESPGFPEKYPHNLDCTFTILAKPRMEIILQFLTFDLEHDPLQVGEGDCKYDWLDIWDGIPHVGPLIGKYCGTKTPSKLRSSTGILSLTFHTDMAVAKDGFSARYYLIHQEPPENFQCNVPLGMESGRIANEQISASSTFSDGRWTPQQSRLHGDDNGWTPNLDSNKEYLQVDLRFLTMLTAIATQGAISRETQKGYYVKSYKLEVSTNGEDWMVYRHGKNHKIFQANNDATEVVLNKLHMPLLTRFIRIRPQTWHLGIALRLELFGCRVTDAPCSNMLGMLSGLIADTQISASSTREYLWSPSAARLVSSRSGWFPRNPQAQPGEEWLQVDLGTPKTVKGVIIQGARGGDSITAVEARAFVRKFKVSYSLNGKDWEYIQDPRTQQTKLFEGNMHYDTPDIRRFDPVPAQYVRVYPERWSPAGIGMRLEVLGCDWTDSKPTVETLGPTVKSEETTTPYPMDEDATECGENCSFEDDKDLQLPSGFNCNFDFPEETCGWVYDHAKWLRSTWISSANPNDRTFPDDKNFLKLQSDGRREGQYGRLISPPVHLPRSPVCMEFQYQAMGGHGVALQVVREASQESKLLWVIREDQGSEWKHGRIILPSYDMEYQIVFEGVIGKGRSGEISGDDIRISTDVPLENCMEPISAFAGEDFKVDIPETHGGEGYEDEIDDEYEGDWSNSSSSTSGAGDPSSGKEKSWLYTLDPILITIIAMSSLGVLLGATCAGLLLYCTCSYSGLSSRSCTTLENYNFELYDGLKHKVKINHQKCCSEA

[4] = molecular target: T4, rat semaphorin receptor 1 (rSR1), full length, expressed on cells (rat, UniProt Q9QWJ9 22-922); test: equilibrium binding of AP fusion to 293-EBNA cells stably expressing rat SR1, Hill fit
T4 construct: also called rat SR1; p28
T4 sequence: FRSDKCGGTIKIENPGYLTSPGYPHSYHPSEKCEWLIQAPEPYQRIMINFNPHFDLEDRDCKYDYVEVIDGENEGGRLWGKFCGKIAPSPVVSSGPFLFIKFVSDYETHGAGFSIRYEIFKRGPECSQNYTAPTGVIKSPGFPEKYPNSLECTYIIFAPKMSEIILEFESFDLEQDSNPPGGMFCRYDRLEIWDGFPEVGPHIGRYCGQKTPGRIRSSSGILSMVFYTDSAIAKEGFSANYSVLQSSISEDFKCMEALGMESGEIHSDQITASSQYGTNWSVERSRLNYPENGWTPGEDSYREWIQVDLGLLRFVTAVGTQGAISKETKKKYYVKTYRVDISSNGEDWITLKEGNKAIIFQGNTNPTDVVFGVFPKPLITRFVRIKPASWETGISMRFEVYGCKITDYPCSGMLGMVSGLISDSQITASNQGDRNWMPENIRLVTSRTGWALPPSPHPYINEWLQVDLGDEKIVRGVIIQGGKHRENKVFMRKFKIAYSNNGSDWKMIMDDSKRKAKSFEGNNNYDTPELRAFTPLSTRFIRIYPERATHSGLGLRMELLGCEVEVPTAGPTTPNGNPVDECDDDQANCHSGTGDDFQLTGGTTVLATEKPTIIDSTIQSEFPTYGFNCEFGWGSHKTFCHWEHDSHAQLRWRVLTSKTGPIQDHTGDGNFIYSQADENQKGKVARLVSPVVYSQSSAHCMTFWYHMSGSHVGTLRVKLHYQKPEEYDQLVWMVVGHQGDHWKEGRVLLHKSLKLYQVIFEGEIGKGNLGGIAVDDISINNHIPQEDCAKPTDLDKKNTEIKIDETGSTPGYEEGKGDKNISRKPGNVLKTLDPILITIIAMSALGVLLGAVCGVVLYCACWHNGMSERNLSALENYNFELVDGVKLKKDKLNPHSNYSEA

- binding result [1]: no binding
- binding result [2]: no binding
- binding result [3]: no binding
B1: AP fusion with Drosophila D-Sema II (ligand, UniProt Q24323 26-724, looked up)
chain: DYENTWNFYYERPCCTGNDQGNNNYGKHGADHVREFNCGKLYYRTFHMNEDRDTLYVGAMDRVFRVNLQNISSSNCNRDVINLEPTRDDVVSCVSKGKSQIFDCKNHVRVIQSMDQGDRLYVCGTNAHNPKDYVIYANLTHLPRSEYVIGVGLGIAKCPYDPLDNSTAIYVENGNPGGLPGLYSGTNAEFTKADTVIFRTDLYNTSAKRLEYKFKRTLKYDSKWLDKPNFVGSFDIGEYVYFFFRETAVEYINCGKAVYSRIARVCKKDVGGKNLLAHNWATYLKARLNCSISGEFPFYFNEIQSVYQLPSDKSRFFATFTTSTNGLIGSAVCSFHINEIQAAFNGKFKEQSSSNSAWLPVLNSRVPEPRPGTCVNDTSNLPDTVLNFIRSHPLMDKAVNHEHNNPVYYKRDLVFTKLVVDKIRIDILNQEYIVYYVGTNLGRIYKIVQYYRNGESLSKLLDIFEVAPNEAIQVMEISQTRKSLYIGTDHRIKQIDLAMCNRRYDNCFRCVRDPYCGWDKEANTCRPYELDLLQDVANETSDICDSSVLKKKIVVTYGQSVHLGCFVKIPEVLKNEQVTWYHHSKDKGRYEIRYSPTKYIETTERGLVVVSVNEADGGRYDCHLGGSLLCSYNITVDAHRCTPPNKSNDYQKIYSDWCHEFEKYKTAMKSWEKKQAQCSTRQNFSSNQHPNEIFRKPNV
notes: also called Drosophila Sema II; not shown: alkaline phosphatase (AP) reporter

- binding result [1]: no binding
- binding result [2]: no binding
- binding result [3]: no binding
B2: AP fusion with the ectodomain of Sema VIa (ligand, UniProt O35464 19-649, looked up)
chain: GFPEDSEPISISHGNYTKQYPVFVGHKPGRNTTQRHRLDIQMIMIMNRTLYVAARDHIYTVDIDTSHTEEIYCSKKLTWKSRQADVDTCRMKGKHKDECHNFIKVLLKKNDDTLFVCGTNAFNPSCRNYRVDTLETFGDEFSGMARCPYDAKHANIALFADGKLYSATVTDFLAIDAVIYRSLGDSPTLRTVKHDSKWLKEPYFVQAVDYGDYIYFFFREIAVEYNTMGKVVFPRVAQVCKNDMGGSQRVLEKQWTSFLKARLNCSVPGDSHFYFNILQAVTDVIRINGRDVVLATFSTPYNSIPGSAVCAYDMLDIANVFTGRFKEQKSPDSTWTPVPDERVPKPRPGCCAGSSSLEKYATSNEFPDDTLNFIKTHPLMDEAVPSIINRPWFLRTMVRYRLTKIAVDNAAGPYQNHTVVFLGSEKGIILKFLARIGSSGFLNGSLFLEEMNVYNPEKCSYDGVEDKRIMGMQLDRASGSLYVAFSTCVIKVPLGRCERHGKCKKTCIASRDPYCGWVRESGSCAHLSPLSRLTFEQDIERGNTDGLGDCHNSFVALNGHASSLYPSTTTSDSASRDGYESRGGMLDWNDLLEAPGSTDPLGAVSSHNHQDKKGVIRESYLKSNDQLVPVT
notes: extracellular domain; also called Sema VIa ectodomain; not shown: alkaline phosphatase (AP) reporter

- Kd [4]: 0.84 nM and 0.0672 µg/mL
B3: AP fusion protein comprising only the C domain of SemaIII (AP-C) (ligand)
chain: IIPVEEENPDFWNREAAEALGAAKKLQPAQTAAKNLIIFLGDGMGVSTVTAARILKGQKKDKLGPEIPLAMDRFPYVALSKTYNVDKHVPDSGATATAYLCGVKGNFQTIGLSAAARFNQCNTTRGNEVISVMNRAKKAGKSVGVVTTTRVQHASPAGTYAHTVNRNWYSDADVPASARQEGCQDIATQLISNMDIDVILGGGRKYMFRMGTPDPEYPDDYSQGGTRLDGKNLVQEWLAKRQGARYVWNRTELMQASLDPSVTHLMGLFEPGDMKYEIHRDSTLDPSLMEMTEAALRLLSRNPRGFFLFVEGGRIDHGHHESRAYRALTETIMFDDAIERAGQLTSEEDTLSLVTADHSHVFSFGGYPLRGSSIFGLAPGKARDRKAYTVLLYGNGPGYVLKDGARPDVTESESGSPEYRQQSAVPLDEETHAGEDVAVFARGPQAHLVHGVQEQTFIAHVMAFAACLEPYTACDLAPPAGTTDAAHPGGFIQTLLKVTLEVIDTEHLEELLHKDDDGDGSKTKEMSNSMTPSQKVWYRDFMQLINHPNLNTMDEFCEQVWKRDRKQRRQRPGHTPGNSNKWKHLQENKK
